Measured values reported in paper PMC11813584, “An odorant-binding protein functions in fire ant social immunity interfacing with innate immunity” (Open Biology, 2025).

Target: SiOBP15, purified, His-tag removed (Solenopsis invicta)
Assay: SPR; open SPR; SiOBP15 coupled to a COOH chip until saturation, SiApoLp-III or SiFABP5 titrated as analyte; one-to-one model (TraceDrawer)

Kd: 1100 nM
Substance: SiFABP5, purified, His-tag removed (natural protein)
